Laboratory results taken from paper PMC9726891, “SESAME-catalyzed H3T11 phosphorylation inhibits Dot1-catalyzed H3K79me3 to regulate autophagy and telomere silencing” (Nature Communications, 2022).
Blank lines part the entries; values can stand above or below the molecule they belong to. Where no end group is shown, it is not given here.

How the values were obtained:
Dot1 [1] = molecular target: Dot1 (UniProt Q04089); test: Dot1-FLAG IP, anti-H3/H4 blot of nucleosomes; settings: reference: wild type H3; sites T11
Dot1 [2] = molecular target: Dot1 (UniProt Q04089); test: biotinylated peptide pull-down, immunoblot; settings: reference: unmodified H3 (1-23) peptide; sites T11
Set2 = Set2 (UniProt P46995); test: biotinylated peptide pull-down, immunoblot; settings: reference: unmodified H3 (1-23) peptide; sites T11
Set1 = Set1 (UniProt P38827); test: biotinylated peptide pull-down, immunoblot; settings: reference: unmodified H3 (1-23) peptide; sites T11
Dot1 [3] = molecular target: Dot1 (UniProt Q04089); test: H3-FLAG nucleosome IP, Dot1 blot; settings: reference: WT H3-FLAG; sites T11
[4] = molecular target: T1, purified endogenous SIR complex (Sir2-FLAG) (S. cerevisiae (endogenous in yeast), UniProt P06700 1-562; P06701 1-978; P11978 1-1358); test: pull-down; 1.0 µg biotinylated histone peptide incubated with 1 µg purified SIR complex (Sir2-FLAG) in 50 mM Tris-HCl pH 7.5, 250 mM NaCl, 0.1% NP-40, overnight at 4 °C; Streptavidin beads; immunoblot; settings: both partners purified
T1 construct: NAD-dependent histone deacetylase Sir2, S. cerevisiae; Sir3, S. cerevisiae; named as a subunit of the SIR complex in the introduction; Sir4, S. cerevisiae; also called silent information regulator complex; not shown: FLAG, C-terminal, kept; copies: + +
T1 sequence (P06700 whole entry, chain 1 of 3): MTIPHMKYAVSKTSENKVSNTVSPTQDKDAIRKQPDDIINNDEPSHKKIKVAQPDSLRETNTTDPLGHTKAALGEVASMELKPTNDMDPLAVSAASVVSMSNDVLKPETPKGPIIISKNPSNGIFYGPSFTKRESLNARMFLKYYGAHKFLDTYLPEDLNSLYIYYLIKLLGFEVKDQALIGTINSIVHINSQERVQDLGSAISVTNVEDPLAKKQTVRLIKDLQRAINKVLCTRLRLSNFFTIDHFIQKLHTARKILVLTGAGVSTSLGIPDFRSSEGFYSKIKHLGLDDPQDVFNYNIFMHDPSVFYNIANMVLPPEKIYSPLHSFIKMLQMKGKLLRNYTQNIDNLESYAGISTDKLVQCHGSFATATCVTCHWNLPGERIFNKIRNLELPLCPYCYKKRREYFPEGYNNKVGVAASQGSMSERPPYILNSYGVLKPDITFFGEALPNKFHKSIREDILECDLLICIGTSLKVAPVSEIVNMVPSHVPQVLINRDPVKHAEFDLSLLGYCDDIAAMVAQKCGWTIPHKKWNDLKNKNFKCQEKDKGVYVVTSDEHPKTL
T1 sequence (P06701 whole entry, chain 2 of 3): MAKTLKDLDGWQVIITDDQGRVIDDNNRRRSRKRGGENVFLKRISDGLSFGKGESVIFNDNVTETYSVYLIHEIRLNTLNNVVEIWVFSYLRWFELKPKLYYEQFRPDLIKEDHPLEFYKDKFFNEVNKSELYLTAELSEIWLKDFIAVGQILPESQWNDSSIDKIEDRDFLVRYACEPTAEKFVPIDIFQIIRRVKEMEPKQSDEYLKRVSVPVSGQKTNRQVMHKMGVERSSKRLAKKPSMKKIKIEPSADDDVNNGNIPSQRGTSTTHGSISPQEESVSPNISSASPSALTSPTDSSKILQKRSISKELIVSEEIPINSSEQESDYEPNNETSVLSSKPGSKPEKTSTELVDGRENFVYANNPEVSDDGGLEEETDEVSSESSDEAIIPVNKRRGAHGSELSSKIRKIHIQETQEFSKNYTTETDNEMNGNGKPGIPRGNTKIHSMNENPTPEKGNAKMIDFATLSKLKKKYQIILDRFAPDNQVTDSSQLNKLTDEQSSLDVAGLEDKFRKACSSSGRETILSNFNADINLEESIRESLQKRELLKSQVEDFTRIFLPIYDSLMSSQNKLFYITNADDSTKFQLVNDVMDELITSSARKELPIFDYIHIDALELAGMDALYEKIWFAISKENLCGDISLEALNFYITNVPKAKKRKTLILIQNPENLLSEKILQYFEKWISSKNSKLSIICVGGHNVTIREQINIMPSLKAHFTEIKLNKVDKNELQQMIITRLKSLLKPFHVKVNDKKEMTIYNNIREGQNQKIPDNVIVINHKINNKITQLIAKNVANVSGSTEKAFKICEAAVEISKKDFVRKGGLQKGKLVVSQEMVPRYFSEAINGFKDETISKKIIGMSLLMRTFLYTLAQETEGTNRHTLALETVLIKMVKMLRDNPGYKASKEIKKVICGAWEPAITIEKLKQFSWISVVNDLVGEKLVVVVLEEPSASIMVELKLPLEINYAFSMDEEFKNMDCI
T1 sequence (P11978 whole entry, chain 3 of 3): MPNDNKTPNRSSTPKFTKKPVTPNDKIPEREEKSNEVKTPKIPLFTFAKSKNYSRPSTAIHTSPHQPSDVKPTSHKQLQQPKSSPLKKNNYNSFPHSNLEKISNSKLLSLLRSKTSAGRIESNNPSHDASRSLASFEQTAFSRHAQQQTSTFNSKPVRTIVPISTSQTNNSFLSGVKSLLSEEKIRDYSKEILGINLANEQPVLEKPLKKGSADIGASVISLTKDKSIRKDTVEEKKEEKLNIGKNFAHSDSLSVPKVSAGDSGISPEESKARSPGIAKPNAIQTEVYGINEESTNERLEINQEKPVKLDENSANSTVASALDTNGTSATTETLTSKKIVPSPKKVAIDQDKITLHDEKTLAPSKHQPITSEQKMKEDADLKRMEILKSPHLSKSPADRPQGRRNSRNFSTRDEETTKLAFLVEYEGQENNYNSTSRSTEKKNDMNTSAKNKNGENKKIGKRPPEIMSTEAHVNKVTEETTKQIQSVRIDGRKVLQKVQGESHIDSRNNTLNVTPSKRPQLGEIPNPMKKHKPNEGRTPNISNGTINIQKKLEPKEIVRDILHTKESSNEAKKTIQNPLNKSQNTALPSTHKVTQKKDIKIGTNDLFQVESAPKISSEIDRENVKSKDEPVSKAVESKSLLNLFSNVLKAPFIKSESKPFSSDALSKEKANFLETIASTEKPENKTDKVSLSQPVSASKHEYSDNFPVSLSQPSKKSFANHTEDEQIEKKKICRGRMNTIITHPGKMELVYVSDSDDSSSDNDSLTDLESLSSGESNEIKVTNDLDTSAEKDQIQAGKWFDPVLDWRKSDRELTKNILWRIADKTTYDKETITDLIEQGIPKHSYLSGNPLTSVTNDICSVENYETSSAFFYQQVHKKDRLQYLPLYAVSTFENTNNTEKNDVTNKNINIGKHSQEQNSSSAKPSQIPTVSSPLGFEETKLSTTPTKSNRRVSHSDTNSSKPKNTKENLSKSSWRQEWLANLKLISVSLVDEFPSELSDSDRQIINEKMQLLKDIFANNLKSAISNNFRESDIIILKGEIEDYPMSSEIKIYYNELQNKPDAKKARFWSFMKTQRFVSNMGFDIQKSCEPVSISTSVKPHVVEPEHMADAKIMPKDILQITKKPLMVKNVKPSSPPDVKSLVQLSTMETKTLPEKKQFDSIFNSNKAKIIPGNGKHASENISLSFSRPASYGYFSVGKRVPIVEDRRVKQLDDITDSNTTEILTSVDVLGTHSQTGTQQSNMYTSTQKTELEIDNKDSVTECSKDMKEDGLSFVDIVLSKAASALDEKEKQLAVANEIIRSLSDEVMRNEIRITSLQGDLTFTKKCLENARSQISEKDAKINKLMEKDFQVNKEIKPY

Molecule: histone H3 (from UniProt P61830) H3T11A
binding against the reference (Dot1 [1]): stronger

Molecule: histone H3 1-23 (from UniProt P61830) H3pT11 (1-23) peptide
binding against the reference (Dot1 [2]): weaker
binding against the reference (Set2): same
binding against the reference (Set1): same

Results, then the molecule that gave them:

binding against the reference (Dot1 [3]): stronger
Molecule: histone H3 (from UniProt P61830) H3T11A-FLAG

binding result [4]: binds
B1: Unmodified H3 (72–85) peptide (peptide)
peptide: REIAQDFKTDLRFQ
modifications: also: biotin (position not given here)
notes: histone H3 residues 72-85; also called unmodified H3 peptide; source: synthetic peptide (biotinylated histone peptide)
